One assay has as its target Aβ1-40 (UniProt P05067). Put plainly: concentration-dependent binding of recombinant netrin-1 to the Aβ peptide; format not stated.
Assay [1] addresses Aβ1-17, the 17 first amino acids of Aβ (UniProt P05067). Put plainly: concentration-dependent binding of recombinant netrin-1 to the peptide; format not stated.

Data on 1 substance can be found in patent US20100099609A1.

Consider “recombinant netrin-1 (species not stated) (ligand)”, for which the Kd amounted to 22 nM in the assay with Aβ1-40 and 30 nM in assay [1].

As a reminder, the Kd is the equilibrium constant for the complex coming apart.
